B1: t865744 (protein)
chain: MGNTTSIAGRDCLISALGGNSALAVFPNELLWTADVHEYNLNLPVTPAAITYPETAAQIAGVVKCASDYDYKVQARSGGHSFGNYGLGGADGAVVVDMKHFTQFSMDDETYEAVIGPGTTLNDVDIELYNNGKRAMAHGVCPTIKTGGHFTIGGLGPTARQWGLALDHVEEVEVVLANSSIVRASNTQNQDVFFAVKGAAANFGIVTEFKVRTEPAPGLAVQYSYTFNLGSTAEKAQFVKDWQSFISAKNLTRQFYNNMFIFDGDIILEGLFFGSKEQYDALGLEDHFAPKNPGNILVLTDWLGMVGHALEDTILKLVGNTPTWFYAKSLGFRQDTLIPSAGIDEFFEYIANHTAGTPAWFVTLSLEGGAINDVAEDATAYAHRDVLFWVQLFMVNPVGPISDTTYEFTDGLYDVLARAVPESVGHAYLGCPDPRMEDAQQKYWRTNLPRLQELKEELDPKNTFHHPQGVMPA
B2: t878465 (protein)
chain: MGNTTSIAGRDCLISALGGNSALAVFPNELLWTADVHEYNLNLPVTPAAITYPETAAQIAGVVKCASDYDYKVQARSGGHSFGNYGLGGADGAVVVDMKHFTQFSMDDETYEAVIGPGTTLNDVDIELYNNGKRAMAHGVCPTIKTGGHFTIGGLGPTARQWGLALDHVEEVEVVLANSSIVRASNTQNQDVFFAVKGAAASFGIVTEFKVRTEPAPGLAVQYSYTFNLGSTAEKAQFVKDWQSFISAKNLTRQFYNNMVIFDGDIILEGLFFGSKEQYDALGLEDHFAPKNPGNILVLTDWLGMVGHALEDTILKLVGNTPTWFYAKSLGFRQDTLIPSAGIDEFFEYIANHTAGTPAWFVTLSLEGGAINDVAEDATAYAHRDVLFWVQLFMVNPVGPISDTTYEFTDGLYDVLARAVPESVGHAYLGCPDPRMEDAQQKYWRTNLPRLQELKEELDPKNTFHHPQGVMAA
modifications: expressed in S. cerevisiae strain
B3: t865694 (protein)
chain: MGNTTSIAGRDCLISALGGNSALAVFPNELLWTADVHEYNLNLPVTPAAITYPETAEQIAGVVKCASDYDYKVQARSGGHSFGNYGLGGADGAVVVDMKHFTQFSMDDETYEAVIGPGTTLNDVDAELYNNGKRAMAHGVCPTIKTGGHFTIGGLGPTARQWGLALDHVEEVEVVLANSSIVRASNTQNQDVFFAVKGAAANFGIVTEFKVRTEPAPGLAVQYSYTFNLGSTAEKAQFVKDWQSFISAKNLTRQFYNNMVIFDGDIILEGLFFGSKEQYDALGLEDHFAPKNPGNILVLTDWLGMVGHALEDTILKLVGNTPTWFYAKSLGFRQDTLIPSAGIDEFFEYIANHTAGTPAWFVTLSLEGGAINDVAEDATAYAHRDVLFWVQLFMVNPVGPISDTTYEFTDGLYDVLARAVPESVGHAYLGCPDPRMEDAQQKYWRTNLPRLQELKEELDPKNTFHHPQGVMPA
B4: t865726 (protein)
chain: MGNTTSIAGRDCLISALGGNSALAVFPNELLWDADVHEYNLNLPVTPAAITYPETAAQIAGVVKCASDYDYKVQARSGGHSFGNYGLGGADGAVVVDMKHFTQFSMDDETYEAVIGPGTTLNDVDIELYNNGKRAMAHGVCPTIKTGGHFTIGGLGPTARQWGLALDHVEEVEVVLANSSIVRASNTQNQDVFFAVKGAAANFGIVTEFKVRTEPAPGLAVQYSYTFNLGSTAEKAQFVKDWQSFISAKNLTRQFYSNMVIFDGDIILEGLFFGSKEQYDALGLEDHFAPKNPGNILVLTDWLGMVGHALEDTILKLVGNTPTWFYAKSLGFRQDTLIPSAGIDEFFEYIANHTAGTPAWFVTLSLEGGAINDVAEDATAYAHRDVLFWVQLFMVNPVGPISDTTYEFTDGLYDVLARAVPESVGHAYLGCPDPRMEDAQQKYWRTNLPRLQELKEELDPKNTFHHPQGVMPA
B5: t865717 (protein)
chain: MGNTTSIAGRDCLISALGGNSALAVFPNELLWTADVHEYNLNLPVTPAAITYPETAAQIAGVVKCASDYDYKVQARSGGHSFGNYGLGGADGAVVVDMKHFTQFSMDDETYVAVIGPGTTLSDVDIELYNNGKRAMAHGVCPTIKTGGHFTIGGLGPTARQWGLALDHVEEVEVVLANSSIVRASNTQNQDVFFAVKGAAANFGIVTEFKVRTEPAPGLAVQYSYTFNLGSTAEKAQFVKDWQSFISAKNLTRQFYNNMVIFDGDIILEGLFFGSKEQYDALGLEDHFAPKNPGNILVLTDWLGMVGHALEDTILKLVGNTPTWFYAKSLGFRQDTLIPSAGIDEFFEYIANHTAGTPAWFVTLSLEGGAINDVAEDATAYAHRDVLFWVQLFMVNPVGPISDTTYEFTDGLYDVLARAVPESVGHAYLGCPDPRMEDAQQKYWRTNLPRLQELKEELDPKNTFHHPQGVMPA

What was measured:
[1] = test system: CBCA, THCA, and CBDA production; experiment: In vivo TS activity assay, Example 2 protein engineering of A. niger CBCAS, cultures fed olivetolic acid; type: cell-based, S. cerevisiae; conditions: for average CBCA titer compared with the A. niger positive control / Mean CBCA / Mean CBDA / Mean THCA: secondary screen; for Mean CBCA / Mean CBDA / Mean THCA: olivetolic acid (Table 8); for % CBCA / % CBDA / % THCA: share of terminal cannabinoid product profile
Experimental: (§1) An assay to detect TS activity was conducted as follows: each thawed glycerol stock of candidate CBCAS transformants was stamped into a well of YEP+4% dextrose media. Samples were incubated at 30° C. in a shaking incubator for 2 days. A portion of each of the resulting cultures was stamped into a well of YEP+4% galactose+1 mM olivetolic acid (FIG. 1 Structure 6a). Samples were incubated at 20° C. and shaken in a shaking incubator for 4 days. Every 24 hours during those 4 days, 2% galactose and 1 mM olivetolic acid were spiked into the cultures. Sodium citrate buffer adjusted to pH 5.5 was added to each well at a final concentration of 100 mM. Samples were incubated at 20° C. and shaken in a shaking incubator for 2 days. A portion of each of the resulting production cultures was stamped into a well of phosphate buffered saline (PBS). Optical measurements were taken on a plate reader, with absorbance measured at 600 nm and fluorescence at 528 nm with 485 nm excitation. Samples were incubated at 30° C. in a shaking incubator for 2 days. 100% methanol was stamped into the production cultures in half-height deepwell plates. Plates were heat sealed and frozen. Samples were then thawed for 30 min and spun down at 4° C. A portion of the supernatant was stamped into half-area 96 well plates. CBCA, THCA, and CBDA production in the samples was quantified via liquid chromatography-mass spectrometry (LC-MS).
(§2) To determine whether engineering of the A. niger CBCAS identified in Example 1 (corresponding to SEQ ID NO: 29 (with signal peptides); SEQ ID NO: 27 (without signal peptides and including an N-terminal methionine (UniProt accession No. A0A254UC34)); or SEQ ID NO: 25 (without signal peptides and without the N-terminal methionine)), could alter CBCAS substrate specificity, product specificity and/or amounts of products produced, point mutations were generated in A. niger CBCAS and the mutant versions of the protein were expressed in S. cerevisiae. A library containing 1047 A. niger CBCAS mutants was generated and screened. As in Example 1, each CBCAS mutant in the library, as well as the enzymes expressed by positive control strains, included an N-terminal MFalpha2 signal peptide (SEQ ID NO: 16) (with a methionine residue added at the N-terminus of the MFalpha2 signal peptide) and a C-terminal HDEL signal peptide (SEQ ID NO: 17).
Production of compounds of Formulae (9), (10), and/or (11), including compounds of Formulae (9a), (10a), and/or (11a) by strains expressing the mutated versions of A. niger CBCAS was quantified and compared to the production of the same compounds by a strain expressing wild-type A. niger CBCAS, a strain expressing a C. sativa THCAS, and a strain expressing a C. sativa CBDAS. The strains were screened using the same assay described in Example 1. Production of CBCA, THCA, and/or CBDA in the samples was quantified via LC-MS.
(§3) Of the original 1047 library members, 55 strains were elevated to a secondary screen to verify CBCA production. The experimental protocol for the secondary screen was identical to the primary screen, except that additional biological replicates were included per strain, and replicate production cultures for each strain were separately fed 1 mM boluses of olivetolic acid or 1 mM boluses of divaric acid. All strains were screened in quadruplicate.

[2] = test system: CBCVA, THCVA, and CBDVA production; experiment: In vivo TS activity assay, Example 2 protein engineering of A. niger CBCAS, cultures fed divaric acid; type: cell-based, S. cerevisiae; conditions: for Mean CBCVA / Mean CBDVA / Mean THCVA: S. cerevisiae strains expressing A. niger CBCAS mutants; for Mean CBCVA / Mean CBDVA / Mean THCVA / average CBCVA titer compared with the A. niger positive control: secondary screen; for Mean CBCVA / Mean CBDVA / Mean THCVA / % CBCVA / % CBDVA / % THCVA: fed divaric acid; for % CBCVA / % CBDVA / % THCVA: share of terminal cannabinoid product profile
Experimental: as §1, §2, §3

| Molecule | average CBCA titer compared with the A. niger positive control [1] | Mean CBCA [1] | Mean CBDA [1] | Mean THCA [1] | % CBCA [1] | % CBDA [1] | % THCA [1] | Mean CBCVA [2] | Mean CBDVA [2] | Mean THCVA [2] | average CBCVA titer compared with the A. niger positive control [2] | % CBCVA [2] | % CBDVA [2] | % THCVA [2] |
| --- | --- | --- | --- | --- | --- | --- | --- | --- | --- | --- | --- | --- | --- | --- |
| B1 | higher | 44305.26 µg/L | 7187.94 µg/L | 2369.76 µg/L | 82.26% | 13.34% | 4.40% | 3752.20 µg/L | 0.00 µg/L | 2162.61 µg/L | higher | 63.44% | 0.00% | 36.56% |
| B2 | higher | 41094.07 µg/L | 9826.17 µg/L | 2184.77 µg/L | 77.38% | 18.50% | 4.11% | 4314.23 µg/L | 0.00 µg/L | 2144.09 µg/L | higher | 66.80% | 0.00% | 33.20% |
| B3 | higher | 43506.37 µg/L | 9126.46 µg/L | 2579.57 µg/L | 78.80% | 16.53% | 4.67% | 3069.69 µg/L | 0.00 µg/L | 1647.98 µg/L |  | 65.07% | 0.00% | 34.93% |
| B4 | higher | 41981.73 µg/L | 9985.90 µg/L | 2186.01 µg/L | 77.52% | 18.44% | 4.04% | 3644.48 µg/L | 0.00 µg/L | 1740.51 µg/L | higher | 67.68% | 0.00% | 32.32% |
| B5 | higher | 44204.43 µg/L | 9698.33 µg/L | 2648.36 µg/L | 78.17% | 17.15% | 4.68% | 3668.51 µg/L | 0.00 µg/L | 1721.38 µg/L | higher | 68.06% | 0.00% | 31.94% |

Reference: patent US20230137139A1, “BIOSYNTHESIS OF CANNABINOIDS AND C[…]” (priority 2020, published 2023)
